{"source": "patent US20260209363A1", "about": "(Chugai, published 2026)", "biological_target": "T1, Mouse MOG (R&D system) (mouse, UniProt Q61885 29-156, limits assumed)", "T1 construct": "also called mouse soluble MOG; soluble MOG", "T1 sequence (looked up)": "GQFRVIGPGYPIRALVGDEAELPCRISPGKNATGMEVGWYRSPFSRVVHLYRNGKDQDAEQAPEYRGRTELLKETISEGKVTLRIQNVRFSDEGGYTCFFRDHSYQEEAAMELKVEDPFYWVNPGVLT", "test": "SPR (Biacore T200), antibody captured by anti-human Fc antibody, mouse MOG as analyte, 25 degrees C, no albumin", "experimental": "Binding activities of the antibodies produced in Example 10 against mouse MOG were assessed using Biacore T200 (Cytiva).\nAs the running buffer, 50 mM Na Phosphate (pH 7.4), 150 mM NaCl, 0.05% Tween 20, and 0.005% NaN₃ was used, and the assessment was performed at 25 degrees C. First, anti-human Fc antibody (Cytiva) was used as a ligand-capturing molecule. Anti-human Fc antibody (Cytiva) was solid-phased on a Series S Sensor Chip CM4 (Cytiva) using an Amine Coupling Kit (Cytiva). Antibody solutions prepared using the running buffer was allowed to interact with this CM4 sensor chip to capture approximately 480 RU of the antibody. Mouse MOG (R&D system) was diluted to 0, 10, 40, 160, and 640 nM with the running buffer, and then bound to the captured antibody. The chip was regenerated using 3 M MgCl₂, and measurements were performed by repeatedly capturing antibodies. Dissociation constant (KD) of the respective antibodies for mouse MOG was calculated using Biacore T200 Evaluation Software 2.0. Specifically, the association rate constant ka (L/mol/s) and the dissociation rate constant kd (1/s) were calculated by global fitting of the sensorgrams obtained by measurement with the 1:1 Langmuir binding model, and the dissociation constant KD (mol/L) was calculated from these values.", "data": [{"binder": "MOG//IC17 (bispecific antibody, human IgG1, kappa, also called MOG307//IC17; IC17//MOG307) heavy 1: RVTLRESGPTLVKPTQTLTLTCTFSGFSLSTSGVGVGWIRQPPGKALEWLALIFWDDDSHYSPSLKSRLTITKDTSKNQVVLTMTNMDPVDTATYYCARYYFGSGSYFPSYWYFDLWGRGTLVTVSSASTKGPSVFPLAPSSKSTSGGTAALGCLVEDYFPEPVTVSWNSGALTSGVHTFPAVLQSSGLYSLSSVVTVPSSSLGTQTYICNVNHKPSNTKVDERVEPKSCDKTHTCPPCPAPELRRGPSVFLFPPKPKDTLMISRTPEVTCVVVDVSHEDPEVKFNWYVDGVEVHNAKTKPREEQYNSTYRVVSVLTVLHQDWLNGKEYKCKVSNKALPAPIEKTISKAKGQPREPQVCTLPPSREEMTKNQVSLSCAVKGFYPSDIAVEWESNGQPENNYKTTPPVLDSDGSFFLVSKLTVDKSRWQQGNVFSCSVMHEALHNHYTQKSLSLSP light 1: not shown heavy 2: not shown light 2: QVQLQQSGPQLVRPGASVKISCKASGYSFTSYWMHWVNQRPGQGLEWIGMIDPSYSETRLNQKFKDKATLTVDKSSSTAYMQLSSPTSEDSAVYYCALYGNYFDYWGQGTTLTVSSASVAAPSVFIFPPSDEQLKSGTASVVCLLNNFYPREAKVQWKVDNALQSGNSQESVTEQDSKDSTYSLSSTLTLSKADYEKHKVYACEVTHQGLSSPVTKSFNRGEC", "values": [{"measurement": "Kd", "result": 0.452, "unit": "nM"}, {"measurement": "koff", "result": "6.99e-05", "unit": "s⁻¹"}, {"measurement": "kon", "result": 155000, "unit": "M⁻¹ s⁻¹"}]}]}
